Measurements reported in PMC9482650, “Quantitative fragmentomics allow affinity mapping of interactomes” (Nature Communications, 2022).

Key:
Assay in all cases: holdup assay
Set-up in all cases: key: below the threshold = too weak to quantify, mostly under pKd 3.1 to 4
MPP7, Q5T2T1 = target: T1, MPP7, Q5T2T1
T1 sequence (Q5T2T1 134-230, limits assumed, looked up): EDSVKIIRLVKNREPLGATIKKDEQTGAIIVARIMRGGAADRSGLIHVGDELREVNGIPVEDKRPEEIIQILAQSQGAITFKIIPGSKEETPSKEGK

IL16_1, Q14005 = target: IL16_1, Q14005
DLG4_1, P78352 = target: DLG4_1, P78352
LRRC7, Q96NW7 = target: T2, LRRC7, Q96NW7
T2 sequence (Q96NW7 1440-1537, limits assumed, looked up): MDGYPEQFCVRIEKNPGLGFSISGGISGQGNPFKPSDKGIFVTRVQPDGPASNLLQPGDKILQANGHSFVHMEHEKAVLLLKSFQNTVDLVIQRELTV

NHERF3_4, Q5T2W1 = target: T3, NHERF3_4, Q5T2W1
T3 sequence (Q5T2W1 373-468, limits assumed, looked up): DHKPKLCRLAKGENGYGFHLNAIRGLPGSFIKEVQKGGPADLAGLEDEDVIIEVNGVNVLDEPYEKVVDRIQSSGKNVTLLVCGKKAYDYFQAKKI

Inadl_2, Q8NI35 = target: Inadl_2, Q8NI35
GRIP1_3, Q9Y3R0 = target: T4, GRIP1_3, Q9Y3R0
T4 sequence (Q9Y3R0 247-346, limits assumed, looked up): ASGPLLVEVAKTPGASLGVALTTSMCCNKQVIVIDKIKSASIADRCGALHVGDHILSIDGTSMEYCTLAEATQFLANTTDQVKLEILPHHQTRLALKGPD

PCLO, Q9Y6V0 = target: T5, PCLO, Q9Y6V0
T5 sequence (Q9Y6V0 4491-4600, limits assumed, looked up): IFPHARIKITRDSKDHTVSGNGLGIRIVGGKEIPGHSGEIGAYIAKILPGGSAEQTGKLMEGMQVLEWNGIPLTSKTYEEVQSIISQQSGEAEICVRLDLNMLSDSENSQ

MAGI1_2, Q96QZ7 = target: MAGI1_2, Q96QZ7
PDZRN3_1, Q9UPQ7 = target: T6, PDZRN3_1, Q9UPQ7
T6 sequence (Q9UPQ7 244-349, limits assumed, looked up): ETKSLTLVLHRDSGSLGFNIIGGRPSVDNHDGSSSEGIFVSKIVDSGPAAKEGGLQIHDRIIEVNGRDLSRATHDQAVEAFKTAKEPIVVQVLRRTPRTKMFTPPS

LIN7A, O14910 = target: T7, LIN7A, O14910
T7 sequence (O14910 103-200, limits assumed, looked up): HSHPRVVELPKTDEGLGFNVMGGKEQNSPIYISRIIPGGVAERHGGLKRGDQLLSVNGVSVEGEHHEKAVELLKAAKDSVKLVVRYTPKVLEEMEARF

Inadl_5, Q8NI35 = target: Inadl_5, Q8NI35
HTRA4, P83105 = target: T8, HTRA4, P83105
T8 sequence (P83105 378-476, limits assumed, looked up): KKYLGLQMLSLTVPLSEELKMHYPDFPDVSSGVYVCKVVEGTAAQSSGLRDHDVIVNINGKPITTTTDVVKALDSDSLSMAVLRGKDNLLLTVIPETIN

DLG1_2, Q12959 = target: DLG1_2, Q12959
GRIP2_4, Q9C0E4 = target: GRIP2_4, Q9C0E4
LAP2, Q96RT1 = target: LAP2, Q96RT1
DFNB31_1, Q9P202 = target: T9, DFNB31_1, Q9P202
T9 sequence (Q9P202 135-233, limits assumed, looked up): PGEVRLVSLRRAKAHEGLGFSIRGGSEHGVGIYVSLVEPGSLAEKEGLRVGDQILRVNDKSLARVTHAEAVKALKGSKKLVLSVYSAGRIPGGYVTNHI

ARHGEF12, Q9NZN5-2 = target: ARHGEF12, Q9NZN5-2
RADIL, Q96JH8 = target: T10, RADIL, Q96JH8
T10 sequence (Q96JH8 971-1071, limits assumed, looked up): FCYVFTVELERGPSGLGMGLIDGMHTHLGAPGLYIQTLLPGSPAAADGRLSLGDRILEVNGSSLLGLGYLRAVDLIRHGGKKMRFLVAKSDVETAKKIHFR

PICK1, Q9NRD5 = target: PICK1, Q9NRD5
PARD3_3, Q8TEW0 = target: PARD3_3, Q8TEW0
MAST2, Q6P0Q8 = target: MAST2, Q6P0Q8
NHERF3_1, Q5T2W1 = target: T11, NHERF3_1, Q5T2W1
T11 sequence (Q5T2W1 4-100, limits assumed, looked up): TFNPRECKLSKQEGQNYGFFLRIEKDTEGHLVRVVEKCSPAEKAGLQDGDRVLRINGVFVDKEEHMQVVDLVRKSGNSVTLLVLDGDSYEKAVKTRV

RHPN1, Q8TCX5 = target: T12, RHPN1, Q8TCX5
T12 sequence (Q8TCX5 508-602, limits assumed, looked up): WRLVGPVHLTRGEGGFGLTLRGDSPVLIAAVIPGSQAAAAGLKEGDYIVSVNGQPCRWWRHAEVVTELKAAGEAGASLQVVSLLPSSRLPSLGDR

[1] = plain residues with an end cap or a label only (N-terminal biotin on a linker: ahx)
[2] = plain residues with an end cap or a label only (N-terminal biotin on a linker: ado-ado)
[3] = plain residues with an end cap or a label only (N-terminal biotin on a linker: ttds)

Sequence of IL16_1, Q14005 (Q14005 210-306): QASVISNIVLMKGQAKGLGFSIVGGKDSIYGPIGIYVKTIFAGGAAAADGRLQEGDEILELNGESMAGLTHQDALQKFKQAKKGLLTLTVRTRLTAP
Sequence of PARD3_3, Q8TEW0 (Q8TEW0 582-685): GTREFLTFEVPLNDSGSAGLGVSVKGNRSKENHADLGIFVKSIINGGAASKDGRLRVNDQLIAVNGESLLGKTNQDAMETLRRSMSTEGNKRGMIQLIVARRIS
Sequence of Inadl_5, Q8NI35 (Q8NI35 673-780): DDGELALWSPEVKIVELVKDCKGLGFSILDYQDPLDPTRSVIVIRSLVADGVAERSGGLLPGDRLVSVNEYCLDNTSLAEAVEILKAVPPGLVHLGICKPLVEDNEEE
Sequence of GRIP2_4, Q9C0E4 (Q9C0E4 446-548): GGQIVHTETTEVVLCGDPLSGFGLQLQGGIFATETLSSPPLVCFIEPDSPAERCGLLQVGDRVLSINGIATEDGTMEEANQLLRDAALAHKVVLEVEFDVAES
Sequence of Inadl_2, Q8NI35 (Q8NI35 238-335): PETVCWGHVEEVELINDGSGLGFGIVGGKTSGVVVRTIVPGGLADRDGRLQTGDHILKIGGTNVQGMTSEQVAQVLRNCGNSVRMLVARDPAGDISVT
Sequence of MAGI1_2, Q96QZ7 (Q96QZ7 456-580): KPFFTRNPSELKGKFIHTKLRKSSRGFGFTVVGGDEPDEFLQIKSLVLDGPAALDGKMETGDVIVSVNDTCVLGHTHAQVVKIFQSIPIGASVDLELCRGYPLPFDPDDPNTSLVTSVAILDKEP
Sequence of DLG4_1, P78352 (P78352 62-152): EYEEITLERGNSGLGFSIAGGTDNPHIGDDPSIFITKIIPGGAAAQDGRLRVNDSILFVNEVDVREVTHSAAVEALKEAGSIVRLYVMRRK
Sequence of MAST2, Q6P0Q8 (Q6P0Q8 1099-1202): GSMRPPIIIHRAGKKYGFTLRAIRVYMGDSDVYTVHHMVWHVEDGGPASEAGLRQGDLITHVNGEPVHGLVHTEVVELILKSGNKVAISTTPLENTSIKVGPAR
Sequence of DLG1_2, Q12959 (Q12959 314-412): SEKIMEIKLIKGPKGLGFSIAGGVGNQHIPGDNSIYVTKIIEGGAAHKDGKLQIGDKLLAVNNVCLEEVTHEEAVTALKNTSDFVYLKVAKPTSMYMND
Sequence of LAP2, Q96RT1 (Q96RT1 other isoform, or with tags, fused parts or gaps): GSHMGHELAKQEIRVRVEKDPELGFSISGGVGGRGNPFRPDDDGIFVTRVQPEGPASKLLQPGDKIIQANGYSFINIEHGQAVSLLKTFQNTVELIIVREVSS
Sequence of PICK1, Q9NRD5 (Q9NRD5 17-115): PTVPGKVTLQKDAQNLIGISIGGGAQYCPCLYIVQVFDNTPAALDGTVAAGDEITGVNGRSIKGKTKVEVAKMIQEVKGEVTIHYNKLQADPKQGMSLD
Sequence of ARHGEF12, Q9NZN5-2 (Q9NZN5 other isoform, or with tags, fused parts or gaps): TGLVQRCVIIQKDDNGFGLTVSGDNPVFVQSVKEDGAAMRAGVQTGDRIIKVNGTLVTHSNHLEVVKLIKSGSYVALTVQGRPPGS

In the case of TIVSWPGTFL [LNX1, Q8TBB1], the pKd (MPP7, Q5T2T1; [1]) is reported as “below the threshold”, the pKd (IL16_1, Q14005; [1]) is reported as “below the threshold” and the pKd (DLG4_1, P78352; [1]) is reported as “below the threshold”. The pKd (LRRC7, Q96NW7; [1]) was “below the threshold”, the pKd (NHERF3_4, Q5T2W1; [1]) was “below the threshold” and the pKd (Inadl_2, Q8NI35; [1]) was “below the threshold”. The pKd (GRIP1_3, Q9Y3R0; [1]) was “below the threshold”, the pKd (PCLO, Q9Y6V0; [1]) was “below the threshold” and the pKd (MAGI1_2, Q96QZ7; [1]) was “below the threshold”. For the same binder, the pKd (PDZRN3_1, Q9UPQ7; [1]) was 3.85, the pKd (LIN7A, O14910; [1]) was “below the threshold” and the pKd (Inadl_5, Q8NI35; [1]) was “below the threshold”. For the same binder, the pKd (HTRA4, P83105; [1]) was 4, the pKd (DLG1_2, Q12959; [1]) was “below the threshold” and the pKd (GRIP2_4, Q9C0E4; [1]) was “below the threshold”. The pKd (LAP2, Q96RT1; [1]) was “below the threshold”, the pKd (DFNB31_1, Q9P202; [1]) was “below the threshold” and the pKd (ARHGEF12, Q9NZN5-2; [1]) was “below the threshold”. The pKd (RADIL, Q96JH8; [1]) was 4.45, the pKd (PICK1, Q9NRD5; [1]) was “below the threshold” and the pKd (PARD3_3, Q8TEW0; [1]) was “below the threshold”. The pKd (MAST2, Q6P0Q8; [1]) was 4.59, the pKd (NHERF3_1, Q5T2W1; [1]) was 5.34 and the pKd (RHPN1, Q8TCX5; [1]) was 4.17.

In the case of FVHPILQSAV [PRKCA, P17252], the pKd (MPP7, Q5T2T1; [2]) is reported as “below the threshold”, the pKd (IL16_1, Q14005; [2]) is reported as 4.33 and the pKd (DLG4_1, P78352; [2]) is reported as 4.07. For the same binder, the pKd (LRRC7, Q96NW7; [2]) was 3.58, the pKd (NHERF3_4, Q5T2W1; [2]) was “below the threshold” and the pKd (Inadl_2, Q8NI35; [2]) was “below the threshold”. For the same binder, the pKd (GRIP1_3, Q9Y3R0; [2]) was “below the threshold”, the pKd (PCLO, Q9Y6V0; [2]) was “below the threshold” and the pKd (MAGI1_2, Q96QZ7; [2]) was 3.73. The pKd (PDZRN3_1, Q9UPQ7; [2]) was 4.21, the pKd (LIN7A, O14910; [2]) was “below the threshold” and the pKd (Inadl_5, Q8NI35; [2]) was “below the threshold”. The pKd (HTRA4, P83105; [2]) was “below the threshold”, the pKd (DLG1_2, Q12959; [2]) was 4.52 and the pKd (GRIP2_4, Q9C0E4; [2]) was “below the threshold”. It also gave a pKd (LAP2, Q96RT1; [2]) of 4.13, a pKd (DFNB31_1, Q9P202; [2]) of 4.29 and a pKd (ARHGEF12, Q9NZN5-2; [2]) of 4.22. The pKd (RADIL, Q96JH8; [2]) was 3.57, the pKd (PICK1, Q9NRD5; [2]) was “below the threshold” and the pKd (PARD3_3, Q8TEW0; [2]) was “below the threshold”. The pKd (MAST2, Q6P0Q8; [2]) was 5.35, the pKd (NHERF3_1, Q5T2W1; [2]) was 4.82 and the pKd (RHPN1, Q8TCX5; [2]) was 4.18.

With SRRPRTETQV [HPV31-E6, P17386] the pKd (MPP7, Q5T2T1; [3]) was “below the threshold”, the pKd (IL16_1, Q14005; [3]) was “below the threshold” and the pKd (DLG4_1, P78352; [3]) was 5.02. For the same binder, the pKd (LRRC7, Q96NW7; [3]) was “below the threshold”, the pKd (NHERF3_4, Q5T2W1; [3]) was “below the threshold” and the pKd (Inadl_2, Q8NI35; [3]) was “below the threshold”. The pKd (GRIP1_3, Q9Y3R0; [3]) was “below the threshold”, the pKd (PCLO, Q9Y6V0; [3]) was “below the threshold” and the pKd (MAGI1_2, Q96QZ7; [3]) was 5.54. The pKd (PDZRN3_1, Q9UPQ7; [3]) was 4.09, the pKd (LIN7A, O14910; [3]) was 3.51 and the pKd (Inadl_5, Q8NI35; [3]) was “below the threshold”. The pKd (HTRA4, P83105; [3]) was “below the threshold”, the pKd (DLG1_2, Q12959; [3]) was 5.79 and the pKd (GRIP2_4, Q9C0E4; [3]) was “below the threshold”. It also gave a pKd (LAP2, Q96RT1; [3]) of 3.9, a pKd (DFNB31_1, Q9P202; [3]) of 3.55 and a pKd (ARHGEF12, Q9NZN5-2; [3]) of 3.86. For the same binder, the pKd (RADIL, Q96JH8; [3]) was “below the threshold”, the pKd (PICK1, Q9NRD5; [3]) was “below the threshold” and the pKd (PARD3_3, Q8TEW0; [3]) was “below the threshold”. It also gave a pKd (MAST2, Q6P0Q8; [3]) of 5.23, a pKd (NHERF3_1, Q5T2W1; [3]) of 4.32 and a pKd (RHPN1, Q8TCX5; [3]) of 3.74.
